Reference: article PMC11169341, “Development of DNA aptamers targeting B7H3 by hybrid-SELEX: an alternative to antibodies for immuno-assays”

T1: recombinant human B7-H3 His-tag (R&D 1949-B3-050) (Homo sapiens, UniProt Q5ZPR3-2 29-245)
T1 sequence: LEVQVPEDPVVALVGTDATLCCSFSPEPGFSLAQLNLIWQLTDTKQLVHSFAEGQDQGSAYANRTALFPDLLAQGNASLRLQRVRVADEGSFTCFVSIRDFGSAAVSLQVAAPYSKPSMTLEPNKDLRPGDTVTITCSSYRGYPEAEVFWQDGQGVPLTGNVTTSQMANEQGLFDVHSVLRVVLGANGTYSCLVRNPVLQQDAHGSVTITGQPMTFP


target: T1, recombinant human B7-H3 His-tag (R&D …); test: dot blot; FITC aptamer, 10 ng protein on membrane; ABB: AWB (composition not given) + 0.1 mg/ml yeast tRNA, 0.1 mg/ml salmon sperm DNA, 5% FBS, 1 mg/ml BSA; 60 min; 0-500 nM aptamer; flow binding assay on ice, dot-blot temperature and pH not stated; settings: protein: commercial; tags: C-terminal His; label: FITC or biotin

Binder | Kd [nM]
VRF-HS_B7H3-01 (ssDNA) DNA: TAGGGAAGAGAAGGACATATGATACAGCACGGTATGACGAGTCCATTGTGTGTGCAGCTCGCTAATTGACTAGTACATGACCACTT | 19.2 ± 4.4
VRF-HS_B7H3-03 (ssDNA) DNA: TAGGGAAGAGAAGGACATATGATATAAGTGACACATCAATCTCATGCGGATGAACCAGTGCGTTTGACTAGTACATGACCACTT | 22.7 ± 3.71
VRF-HS_B7H3-02 (ssDNA) DNA: TAGGGAAGAGAAGGACATATGATCGCCCCTCTTTTCGATTTCAAGCTCCTAACCCACACCTCTTTGACTAGTACATGACCACTT | 24.6 ± 3.69
VRF-HS_B7H3-04 (ssDNA) DNA: TAGGGAAGAGAAGGACATATGATTGCCCCTGACACTTACACGCCACTATCAAGGCACACGCCATTGACTAGTACATGACCACTT | 31.5 ± 4.02
VRF-HS_B7H3-05 (ssDNA) DNA: TAGGGAAGAGAAGGACATATGATTGAGAAGTCACGCCACTTACCTGCGCTCAAAACCTCAGAATTGACTAGTACATGACCACTT | 32.7 ± 4.56
